Results as given in patent US12692524B2, “Sialyltransferases and their use in producing sialylated oligosaccharides” (Chr. Hansen A/S, priority 2017, dated 2026).

B1: SiaT41: sialyltransferase of Actinobacillus suis ATCC 33415, acc. AIJ32009, SEQ ID NO: 24 (protein, listed as Actinobacillus suis)
chain: MERTPQLQAVDIYIDFATIPSLSYFLHFLKHKHDDQRLRLFSLARFEMPQTLIEQYEGIIQFSRNVEHNVEPLLEQLQTILSQEGKQFELHLHLNLFHSFEMFLNLSPTYTQYKEKISKIVLHLYDDGSEGVMKQYQLQKSSSLVQDLAATKASLVSLFENGEGSFSQIDLIRYVWNAVLETHYYLLSDHFLLDEKLQPLKAELGHYQLLNLSAYQYLSSEDLLWLKQILKIDTELESLMQKLTAQPVYFFSGTTFFNISFEDKQRLANIHAILIREHLDPNSQLFIGEPYLFVFKGHPNSPEINQALREYYPNVIFLPENIPFEILTLLGFSPQKIGGFASTIHVNSEQSKLAKLFFLTSTDEQERQLSDGYIKQYALAQAMLEMQLVSQEQVYYCSLSS
B2: SiaT43: sialyltransferase of Bibersteinia trehalosi USDA-ARS-USMARC-189, acc. AHG84654, SEQ ID NO: 18 (protein, listed as Bibersteinia trehalosi)
chain: MEFCKMATTQKICVYLDYATIPSLNYILHFAQHFEDQETIRLFGLSRFHIPESVIQRYPKGVVQFYPNQEKDFSALLLALKNILIEVKQQQRKCEIELHLNLFHYQLLLLPFLSLYLDTQDYCHLTLKFYDDGSEAISALQELALAPDLAAQIQFEKQQFDELVVKKSFKLSLLSRYFWGKLFESEYIWFNQAILQKAELQILKQEISSSRQMDFAIYQQMSDEQKQLVLEILNIDLNKVAYLKQLMENQPSFLFLGTTLFNITQETKTWLMQMHVDLIQQYCLPSGQFFNNKAGYLCFYKGHPNEKEMNQMILSQFKNLIALPDDIPLEILLLLGVIPSKVGGFASSALFNFTPAQIENIIFFTPRYFEKDNRLHATQYRLMQGLIELGYLDAEKSVTHFEIMQLLTKE
B3: SiaT51: sialyltransferase of Photobacterium damselae subsp. damselae CIP 102761, acc. EEZ40509, SEQ ID NO: 32 (protein, listed as Photobacterium damsela)
chain: MKKILTVLSIFILSACNSDNTSLKETVSSNSADVVETETYQLTPIDAPSSFLSHSWEQTCGTPILNESDKQAISFDFVAPELKQDEKYCFTFKGITGDHRYITNTTLTVVAPTLEVYIDHASLPSLQQLIHIIQAKDEYPSNQRFVSWKRVTVDADNANKLNIHTYPLKGNNTSPEMVAAIDEYAQSKNRLNIEFYTNTAHVFNNLPPIIQPLYNNEKVKISHISLYDDGSSEYVSLYQWKDTPNKIETLEGEVSLLANYLAGTSPDAPKGMGNRYNWHKLYDTDYYFLREDYLDVEANLHDLRDYLGSSAKQMPWDEFAKLSDSQQTLFLDIVGFDKEQLQQQYSQSPLPNFIFTGTTTWAGGETKEYYAQQQVNVINNAINETSPYYLGKDYDLFFKGHPAGGVINDIILGSFPDMINIPAKISFEVLMMTDMLPDTVAGIASSLYFTIPADKVNFIVFTSSDTITDREEALKSPLVQVMLTLGIVKEKDVLFWADLPDCSSGVCIDK
B4: SiaT20: sialyltransferase of Campylobacter coli, acc. YP_008473374, SEQ ID NO: 1 (protein, listed as Campylobacter coli)
chain: MQNVIIAGNGPSLQSINYQRLPKEYDIFRCNQFYFEDKYYLGKNIKAAFFNPYPFLQQYHTAKQLVFNNEYKIENIFCSTFNLPFIEKDNFINKFYDFFPDAKLGHKIIENLKEFYAYIKYNEIYLNKRITSGIYMCAIAIALGYKNIYLCGIDFYEGETIYPFKAMSKNIKKIFPWIKDFNPSNFHSKEYDIEILKLLESIYKVNIYALCDNSALANYFPLLVNTDNSFVLENKSDDCINDILLTNNTPGINFYKSQIQVNNTEILLLNFQNMISAKENEISNLNKILQDSYKTINTKENEISNLNKILQDSYKTINTKENEISNLNKILQDKDKLLIVKENLLNFKSRHGKAKFRIQNQLSYKLGQAMMVNSKSLLGYIRMPFVLSYIKDKHKQEQKIYQEKIKKDPSLTLPPLEDYPDYKEALKEKECLTYRLGQTLIKADQEWYKGGYVKMWFEIKKLKKEYKKK
B5: SiaT6: sialyltransferase of Photobacterium sp. JT-ISH-224, acc. BAF92026, SEQ ID NO: 29 (protein, listed as Photobacterium sp.)
chain: MSEENTQSIIKNDINKTIIDEEYVNLEPINQSNISFTKHSWVQTCGTQQLLTEQNKESISLSVVAPRLDDDEKYCFDFNGVSNKGEKYITKVTLNVVAPSLEVYVDHASLPTLQQLMDIIKSEEENPTAQRYIAWGRIVPTDEQMKELNITSFALINNHTPADLVQEIVKQAQTKHRLNVKLSSNTAHSFDNLVPILKELNSFNNVTVTNIDLYDDGSAEYVNLYNWRDTLNKTDNLKIGKDYLEDVINGINEDTSNTGTSSVYNWQKLYPANYHFLRKDYLTLEPSLHELRDYIGDSLKQMQWDGFKKFNSKQQELFLSIVNFDKQKLQNEYNSSNLPNFVFTGTTVWAGNHEREYYAKQQINVINNAINESSPHYLGNSYDLFFKGHPGGGIINTLIMQNYPSMVDIPSKISFEVLMMTDMLPDAVAGIASSLYFTIPAEKIKFIVFTSTETITDRETALRSPLVQVMIKLGIVKEENVLFWADLPNCETGVCIAV
B6: SiaT73: sialyltransferase of Haemophilus somnus 2336, acc. ACA31170, SEQ ID NO: 20 (protein, listed as Haemophilus somnus)
chain: MKYNIKIKAIVIVSSLRMLLIFLMLNKYHLDEVLFVFNEGFELHKKYKIKHYVAIKKKITKFWRLYYKLYFYRFKIDRIPVYGADHLGWTDYFLKYFDFYLIEDGIANFSPKRYEINLTRNIPVFGFHKTVKKIYLTSLENVPSDIRHKVELISLEHLWKTRTAQEQHNILDFFAFNLDSLISLKMKKYILFTQCLSEDRVISEQEKIAIYQHIIKNYDERLLVIKPHPRETTDYQKYFENVFVYQDVVPSELFELLDVNFERVITLFSTAVFKYDRNIVDFYGTRIHDKIYQWFGDIKF
B7: SiaT42: sialyltransferase of Actinobacillus capsulatus DSM 19761, acc. WP_018652686, SEQ ID NO: 25 (protein, listed as Actinobacillus capsulatus)
chain: MERIPQLQAVDIYIDFATIPSLSYFLHFLKHKHDHQRLRLFSLARFEMPQTVIEQYEGIIQFSRNVEHNVEQLLEQLQTILSQEGKQFELHLHLNLFHSFEMFLNLSPTYTKYKEKISKIVLHLYDDGSEGVMKQYQLQQSNSLAQDLASTKASLVSLFKNGEGAFSQIDLIRYVWNAVLETHYYLLSDHFLAHEKLQPLKIELGHYQLLNLSAYQYLSSEDLLWLKQILKIDAELESLMHKLTTQPVYFFSGTTFFNISFEDKQRLANIHAILIREHLDPNSQLFIGEPYLFVFKGHPNSPEINQALREYYPNAIFLPENIPFEILTLLGFSPQKIGGFASTIHVNSEQSKLAKLFFLTSTDEQERNRSDGYIKQYALAQAMLEMQLVSQEQVYYCSLSS
B8: SiaT8: sialyltransferase of Photobacterium sp. JT-ISH-224, acc. BAF92025, SEQ ID NO: 3 (protein, listed as Photobacterium sp.)
chain: MGCNSDSNHNNSDGNITKNKTIEVYVDRATLPTIQQMTQIINENSNNKKLISWSRYPINDEELLESINGSFFKNNSELIKSLDSMILTNDIKKVIINGNTLWAADVVNIIKSIEAFGKKTEIELNFYDDGSAEYVRLYDFSKLPESEQEYKISLSKDNILSSINGTQPFENVVENIYGFSQLYPTTYHMLRADIFETNLPLRSLKGVLSNNIKQMKWDYFKTFNSQQKDKFYNFTGFNPDEIMEQYKASPNKNFIFVGTNSGTATAEQQIDILTEAKNPNSPIITKSIQGFDLFFKGHPSATYNKQIIDAHNMIEIYNKIPFEALIMTDALPDAVGGMGSSVFFSLPNTVENKFIFYKSDTDIENNALIQVMIELNIVNRNDVKLISDLQ

Tests used:
[1] = In vitro sialylation of LNT by protein extracts, LST-a/-b quantified by LC-MS/MS; type: biochemical; conditions: for Relative efficacy of sialyltransferases regarding in-vitro production of sialyllacto-N-tetraoses: LST-a / Relative efficacy of sialyltransferases regarding in-vitro production of sialyllacto-N-tetraoses: LST-b: 5 mM LNT, 10 mM CMP-Neu5Ac, 16 hours, LC-MS/MS, relative quantity, n.d.: not detectable; for Ranking in the screening for sialylation of LNT: in words
Summary of the method: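 E. coli BL21(DE3) crude extracts overexpressing sialyltransferases (IPTG 0.3 mM, 12–16 h at 30 °C) incubated 16 h with 5 mM LNT and 10 mM CMP-Neu5Ac in 50 mM Tris-HCl pH 7.5, 5 mM MgCl2. LST-a and LST-b measured by HILIC LC-MS/MS, MRM in ESI negative mode, against commercial standards.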

[2] = In vivo screening in E. coli #1363/#1730 with lactose as acceptor, sialyllactose identified by TLC; type: cell-based, Escherichia coli BL21(DE3); conditions: for Production of sialyllactose in-vivo: 1.5 mM lactose, 72 to 96 hours, qualitative via TLC
Summary of the method: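 E. coli BL21(DE3) #1363/#1730 expressing sialyltransferases were grown at 30 °C in mineral salts medium with 2% glucose and induced with 0.3 mM IPTG. After 1 h, 1.5 mM lactose was added, plus 1.5 mM sialic acid for #1730, and incubation ran 72–96 h. Cell lysates were analysed by silica TLC with thymol staining.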

[3] = In vitro kinetics (Km, Vmax), donor substrate CMP-Neu5Ac; type: biochemical; conditions: for Km / Vmax CMP-Neu5Ac: 30° C., pH7.5, protein extract
Description: (§1) To rank the best performing sialyltransferases, their Km values for donor and acceptor substrates were determined in vitro. Escherichia coli BL21(DE3) strain #287 was used for overproduction of the enzymes. Cells were incubated in 100 ml 2YT medium in shaking flasks supplemented with 100 μg m^−1 ampicillin at 30° C. until an OD600 of 0.3 was reached. Then, 0.3 mM IPTG was added and the incubation was continued for 12 to 16 hours. Cells were harvested by centrifugation and mechanically disrupted in a defined volume of 50 mM Tris-HCl pH7.5 using glass beads. The protein extract was kept on ice until the assay started. The in vitro assay was carried out in a total volume of 50 μl including 50 mM Tris-HCl pH7.5, 5 mM MgCl2 and varying concentrations of CMP-Neu5Ac (0.05-30 mM) as well as of lactose or LNT (0.1-50 mM). The assay started with the addition of 35 to 750 μg protein extract. After 1 to 10 minutes of incubation at 30° C., the assay was inactivated at 95° C. for 5 minutes. Product formation was determined by mass spectrometry. Data were evaluated using the enzyme kinetic module of SigmaPlot v12.5 to calculate Km and Vmax.
(§2) Their kinetic parameters for CMP-Neu5Ac and LNT as well as lactose are depicted in Table 6.

[4] = In vitro kinetics (Km, Vmax), acceptor substrate lactose; type: biochemical; conditions: 30° C., pH7.5, protein extract
Description: as §1, §2

[5] = In vitro kinetics (Km, Vmax), acceptor substrate LNT; type: biochemical; conditions: 30° C., pH7.5, protein extract
Description: as §1, §2

Molecule | Relative efficacy of sialyltransferases regarding in-vitro production of sialyllacto-N-tetraoses: LST-a [1] | Production of sialyllactose in-vivo [2] | Ranking in the screening for sialylation of LNT [1] | also measured
B1 | 3 | 3′-SL | – | –
B2 | 21 | 3′-SL | – | –
B3 | – | 6′-SL | – | Relative efficacy of sialyltransferases regarding in-vitro production of sialyllacto-N-tetraoses: LST-b [1]: 10
B4 | 1.00 × 10^4 | 3′-SL | best performing α-2,3-sialyltransferases for LST-a production | Michaelis-Menten behaviour ([3]; kinetic parameters for CMP-Neu5Ac, LNT and lactose): does not follow a Michaelis-Menten kinetic
B5 | – | 6′-SL | sialylate LNT most efficiently among the tested α-2,6-sialyltransferases | Relative efficacy of sialyltransferases regarding in-vitro production of sialyllacto-N-tetraoses: LST-b [1]: 300; Described activity confirmed in the lactose screening ([2]; in words): could be confirmed; Km [3]: 2 mM; Vmax CMP-Neu5Ac [3]: 0.16 µmol/min; Km [4]: 5.6 mM; Vmax Lactose [4]: 0.20 µmol/min; Km [5]: 5.5 mM; Vmax LNT [5]: 0.13 µmol/min
B6 | 15 | 3′-SL | – | –
B7 | 3 | 3′-SL | – | –
B8 | 4.00 × 10^3 | – | best performing α-2,3-sialyltransferases for LST-a production | Km [3]: 4 mM; Vmax CMP-Neu5Ac [3]: 0.35 µmol/min; Km [4]: 4.3 mM; Vmax Lactose [4]: 0.37 µmol/min; Km [5]: 4.2 mM; Vmax LNT [5]: 0.32 µmol/min
